Reference: article PMC8644300

Tests used:
[1] = target: recombinant KEA3 C-terminus (Arabidopsis thaliana); experiment: native gel or EMSA; native gel electrophoresis (without SDS) of the SEC fraction with the KEA3 C-terminus, in phosphate-buffered saline pH 8
[2] = target: recombinant KEA3 C-terminus (Arabidopsis thaliana); experiment: SEC; Superdex 200 Increase 10/300 GL, calibrated with low and high molecular weight kits; Ni-NTA eluate treated with 2 mM EDTA to remove residual Ni2+ before the run
[3] = target: K+ exchange antiporter 3 (KEA3), native KEA3.2 isoform (Arabidopsis thaliana (endogenous in Col-0)) (UniProt Q9M0Z3); experiment: native gel or EMSA; Blue Native PAGE of thylakoid membranes solubilized with 0.7% β-DM, blotted and detected with the antibody against the KEA3 C-terminus; native protein marker for size

“recombinant KEA3 C-terminus (domain or fragment)” was tested, and the stoichiometry N [1] was 2 and the stoichiometry N [2] was 2.
Substance “K+ exchange antiporter 3 (KEA3), native KEA3.2 isoform (from UniProt Q9M0Z3-1 73-776) (natural protein)” has a stoichiometry N [3] of 2.
